One may read the Kd as a measure of binding affinity in units of concentration. A low value points to tighter binding.

Kd, binding result and binding signal data for four molecules are collected here from patent US6140466, “Zinc finger protein derivatives and methods therefor” (The Scripps Research Institute).

Data set [1] has as its target (C7 finger)x3 (synthetic (Zif268 variant)). Kind of data set: SPR. The settings on record: hairpin.
Data set [2] has as its target TFIIIA zf1-3 (UniProt P03001 P03001:33-123). Kind of data set: EMSA; ambient temperature; complete 23 bp sequence not given. The settings on record: tags: first three zinc fingers of TFIIIA; label: 32P. An excerpt: An experiment was designed to determine whether the binding of this polypeptide to its recognition sequence, placed close to an active RNA polymerase promoter, would inhibit the activity of that promoter in vitro. The following experiments were done to provide such a test system. A 23 bp oligonucleotide (Liao, et al., 1992, supra) containing the 13 bp recognition sequence for zf1–3 was cloned into the polylinker region of plasmid pBluescript SK+ (Stratagene, La Jolla, Calif.), near the promoter sequence for T7 RNA polymerase. The parent plasmid was digested with the restriction enzyme EcoRV and, after dephosphorylation with calf intestinal alkaline phosphatase, the phosphorylated 23 bp oligonucleotide was inserted by ligation with T4 DNA ligase. The ligation product was used for transformation of DH5α *E. coli* cells. Clones harboring 23 bp inserts were identified by restriction digestion of miniprep DNA. The success of cloning was also verified by DNA sequence analysis. The DNA binding activity of the preparation of recombinant zf1–3 was also determined by gel mobility shift analysis with a 56 bp radiolabeled EcoRI/XhoI restriction fragment derived from the cone containing the binding site for zf1–3 and with the radiolabeled 23 bp oligonucleotide. Gel shift assays were done as described (Liao, et al., supra; Fried, et al., *Nucl. Acids., Res.,* 9:6505, 1981). […]
(In general: In EMSA bound probe runs differently from free probe, usually more slowly.)

The target in data set [3] is MBP-C7 (synthetic (Zif268 variant, mouse), UniProt P08046). Kind of data set: EMSA; 0.1 mM ZnCl2, RT.
Data set [4] addresses Zif268 fingers 1-3 (Mus musculus, UniProt P08046 SEQ:1-91). In words: SPR; zinc buffer (90 uM ZnCl2, 5 mM DTT); Kd from kon/koff. (Surface plasmon resonance follows binding to a sensor surface in real time, without labels.)
Data set [5] has as its target Zif268 variant C7 (synthetic (Zif268 variant, mouse), UniProt P08046). Kind of data set: SPR; 5-fold slower dissociation; Kd in FIG. 11 only.

Sequence of TFIIIA zf1-3 (P03001 33-123, one chain of several): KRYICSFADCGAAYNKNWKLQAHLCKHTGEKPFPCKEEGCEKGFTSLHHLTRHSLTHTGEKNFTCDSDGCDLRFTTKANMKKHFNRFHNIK
Sequence of (C7 finger)x3 (synthetic (Zif268 variant)) (chain, as listed by the source): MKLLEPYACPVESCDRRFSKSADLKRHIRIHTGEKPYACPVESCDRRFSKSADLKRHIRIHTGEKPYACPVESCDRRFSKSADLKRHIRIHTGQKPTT

B1: GCG-GCG-GCG hairpin (structured_DNA)
DNA: CCTCGCCGCCGCGGGTTTTCCCGCGCCCCCGAGG
Turning to B1, the dissociation constant (Kd) in data set [1] stood at 9 nM.

B2: zf1-3 binding site oligo (23 bp containing 13 bp site) (dsDNA)
DNA 1: TGGATGGGAGACC
DNA 2: GGTCTCCCATCCA
As to B2, the binding result in data set [2] was “binds”.

B3: C7 site probe (dsDNA)
DNA 1: GATGTATGTAGCGTGGGCGTAAGTAATGC
DNA 2: GCATTACTTACGCCCACGCTACATACATC
In data set [3], B3 gave a Kd of 31.8 nM.

B4: Z268N consensus hairpin (structured_DNA)
DNA: CCTGCGTGGGCGCCCTTTTGGGCGCCCACGCAGG
As for B4, binding in data set [4] was put at a Kd of 6.5 nM. Moreover, the binding signal in data set [5] is 13 fold tighter than Zif268.
